Experimental data published in US20250243282A1 (TRUEBINDING, published 2025).

How the values were obtained:
[1] = target: T1, Recombinant human Gal3 (rhGal3) (TrueBinding, #QC200361) (human, UniProt P17931 2-250); experiment: cell-based or functional assay
[2] = target: T1, Recombinant human Gal3 (rhGal3) …; experiment: cell-based or functional assay; remark: listed apart in the source
Note: test concentration or dose not given here.

Row | Binder | % inhibition of CD62L shedding [1] [%] | % inhibition of IL-6 secretion [2] [%] | % inhibition of TNFα secretion [2] [%]
1 | 847.16D10 (antibody, V domains shown) VH: QVQLQQSGAELVRPGASVKLSCKASGYTFTGYWLNWVKQRPGQGLEWIGMIDPSDSETHYNQVFKDKATMTVDRSSSTAYMQLSGLTSEDSAVYYCANSNYASGSWGQGTTLTVSS VL: QAVVTQESALTTSPGETVTLTCRSSTGAVTTSNYANWDQEKPDHLFTGLIGGTNNRAPGVPARFSGSLIGDKAALTITGAQTEDEAIYFCALWYSNHLVFGGGTKVTVL | 14.4 |  | 
2 | 14H10.2C9 (antibody, mouse IgG2a, V domains shown) VH: QIQLVQSGPELKKPGETVKISCKASGYTFTTYGMGWVKQAPGKDLKWMGWINTYSGVPTYADDFKGRFAFSLETSASTAYLQISNLKNEDTATYFCSTPYEYDGAYWGQGTLVTVSA VL: not shown | 86.3 | 55.6 | 54
3 | 847.13E2-mH0mL1 (antibody, V domains shown) VH: EVQLQQSGPELVKPGASVKVSCKASGYSFTDYNMYWVMQSHGKSLEWIGYIDPYNDATSYSQKFTGKATLTVDKSSSTAFMHLNSLTSEDSAVYYCARWGRYEYYAMDYWGQGTSVTVSS VL: DIVMTQSPASLPVSLGQRATISCRASKSVTTSAYSYIHWYQQRPGQPPKLLIYLASNLESGVPARFSGSGSGTDFTLNIHPVEEEDAATYYCQHNRELPPTFGGGTKLEIN | 79.9 |  | 
4 | 847.13E2-mH0mL2 (antibody, V domains shown) VH: EVQLQQSGPELVKPGASVKVSCKASGYSFTDYNMYWVMQSHGKSLEWIGYIDPYNDATSYSQKFTGKATLTVDKSSSTAFMHLNSLTSEDSAVYYCARWGRYEYYAMDYWGQGTSVTVSS VL: DIVLTQSPATLSVTPGDSVSFSCRASQIINNNLHWYQQKSHESPRLLIRYTSQSISGIPSRFSGSGSGTDFTLSINNVETEDFGMYFCQQTNSWPLTFGAGTKLELK | 18.8 |  | 
5 | 849.2D7 (antibody, V domains shown) VH: QVQLQQSGPQLVRPGASVKISCKASGYSFTNYWMHWVKQRPGQGLEWIGMIDPSDSETRLNQKFKDKATLTVDKSSSTAYMQLSSPTSEDSAVYYCATGRPDYWGQGTTLTVSS VL: DIVMTQSHKFMSTSVGDRVSITCKASQDVSTAVAWYQQKPGQSPKLLIYWASTRHTGVPDRFTGSGSGTDYTLTISSVQAEDLALYYCQQHYSTPYTFGGGTKLEIK | 78.1 | 39 | 42.7
6 | 847.23F11 (antibody, V domains shown) VH: QVQLQQSGAELVRPGASVKLSCKASGYTFTSSWMNWVKQRPGQGLDWIGMIDPSDSETHYNQMFKDKATLTVDKSSNTAYMQLSRLTSEDSAVYYCVNSNYESGYWGQGTTLTVSS VL: DILMTQSHKFMSTSVGDRVSITCKASQDVSSVVVWYQQKPGQSPKQLIYWASTRHTGVPDRFTGSGSGTDYTLTISSVQAEDLALYYCQQHYSTPYTFGGGTKLEIK | 15.2 |  | 
7 | 15F10.2D6 (antibody, mouse IgG2a, V domains shown) VH: EVQLVESGGGLVKPGGSLKLSCAASGFAFSSYAMSWVRQTPEKRLEWVATISDGGVYTYYTDHVKGRFTISRDNAEDNLYLQMSHLKSEDTAMYYCVRDGGYWGQGTTLTVSS VL: DVLMTQTPLSLPVSLGDQASISCRSSQSIVHNNGNTYLEWYLQKPGQSPKLLIYKVSNRFSGVPDRFSGSGSGTDFTLKISRVEAEDLGVYYCFQGSHVPLTFGGGTKLELKR | 82.5 | 51.5 | 73.5
8 | F849C.8D10 (antibody, human IgG4 S228P, kappa, V domains shown) VH: QVQLQQTGAELVKPGASVKLSCKASGYTFTSYWINWVKQRPGQGLEWIGNIYPGSSSIYYSEKFKSKATLTVDTSSSTAYMQLSSLTSDDSAVYYCARWGYWGQGTTLTVSS VL: DVLMTQTPLSLPVSLGDQASISCRSSQDIVHSSGNTYLEWYLQKPGQSLKLLIYKVSNRFSGVPDRFSASGSGTDFTLKISRVEAEDLGVYYCFQGSHVPPTFGSGTKLEIKR | 180 | -75.8 | -5.5
9 | 7D8.2D8 (antibody, mouse IgG2a, V domains shown) VH: EVQLVESGGGLVKPGGSLKLSCAASGFTFSSYAMSWVRQTPEKRLEWVATISDGGIYTYYPDNVKGRFTISRDNAKNNLFLQMSHLKSEDTAMYYCVRDGGYWGQGTTLTVSS VL: DVLMTQTPLSLPVSLGDQASISCRSSQSIVHSNGNTYLEWYLQKPGQSPKLLIYKVSNRFSGVPDRFSGSGSGTDFTLKISRVEAEDLGVYYCFQGSHVPLTFGAGTKLELKR | 88.6 | 17.4 | -11.5
10 | F846TC.7F10 (antibody, human IgG4 S228P, kappa, V domains shown) VH: EVQLVESGGDLVKPGGSLKLSCAASGFTFSNYGLSWIRQTPDKRLEWVATISSGGSYTYYPDSVKGRFTISRDSAKNTLYLQMSSLKSEDTAMYYCARHAHYYGVSPYYFDYWGQGTCLTVSS VL: not shown | 96.1 | -2.5 | 72.3
11 | 2D10-VH0-VL0 (antibody, human IgG4 S228P, kappa, V domains shown) VH: QVQLQQSGPELVKPGASVKISCKASGYTFTDYYINWVKQRPGQGLEWIGWIYPGSQDTKYNEKFKGKATLTVDTSSSTAYMQLGSLTSEDSAVYFCANYFGSSGWFFDVWGTGTTVTVSS VL: DIVMTQAAFSNPVTLGTSASISCRSSKSLLHSDGITYLYWYLQRPGQSPQLLIYRMSNLASGVPDRFSGSGSGTDFTLRISRVEAEDVGVYYCAQMIEFPLTFGAGTILELKR | 62.4 | 21.7 | 39.6
12 | 3B11.2G2 (antibody, mouse IgG2a, V domains shown) VH: QIQLVQSGPELKKPGETVKISCKTSGYKFKTYVMSWVKQAPGKALKWMGWINTYSGVPTYADDFKGRFAFSLETSASTAYLEIINLKNEDTATYFCARDGNYGDPMDYWGQGTSVTVSS VL: not shown | 92.7 | -4.6 | 46.1
13 | 13A12.2E5 (antibody, mouse IgG2a, V domains shown) VH: QIQLVQSGPELKKPGETVKISCKTSGYKFKTYVMSWVKQAPGKALKWMGWINTYSGVPTYADDFKGRFAFSLETSASTAYLEIINLKNEDTATYFCARDGNYGDPMDYWGQGTSVTVSS VL: DVVMTQTPLTLSVAIGQPASISCKSSQSLLYTNGKTYLNWLLQRPGQSPKRLIYLLSKLDSGVPDRFSASGSGTDFTLKISRVEAEDLGVYYCLQSTHFPLTFGAGTKLEMKR | 87.1 | 39.4 | 61.8
14 | 15G7.2A7 (antibody, human IgG4 S228P, kappa, V domains shown) VH: EVQLQQSGPELVKPGASVKISCKASGYTFTDYYMNWVKQSHGKSLEWIGDINPNNGGTNYNQKFKGKATLTVDKSSSTAYMELRSLTSEDSAVYYCTSGYGFPYWGQGTLVTVSA VL: DIQMNQSPSSLSASLGDTISITCRASQNINIWLSWYQQKPGNIPQLLIYKASNLHTGVPSRFSGSGSGTDFTLTISSLQPEDIATYYCLQGQSYPLTFGAGTKLVMKR | 110 | 31 | 46.1
15 | 20D11.2C6 (antibody, mouse IgG2a, V domains shown) VH: EVQLQQSGPELVKPGASVKISCKASGYTFTDFYINWVKQSHGKSLEWIGDINPKNGGINYNPKFKIKATLTVDKSSSTSYMDLRGLTSEDSAVYYCTSGYGFPYWGQGTLVTVSA VL: DIQMNQSPSSLSASLGDTITITCRASQNIYIWLSWYQQKPGNIPKLLIYKASNLHTGVPSRFSGSGSGTDFTLTISTLQPEDIATYFCLQGQSYPLTFGAGTKLEMKR | 89.4 | 43.7 | 69.1
16 | F846TC.14E4 (antibody, human IgG4 S228P, kappa, V domains shown) VH: QVTLKESGPGILQPSQTLSLTCSFSGFSLSTSGMGVGWIRQPSGKGLEWLAHIWWDDDKYYNTALKSGLTISKDASKNQVFLKIASMDTADTATYYCARNLYDGSYGYYAMDYWGQGTSVTVSS VL: DIVMTQAAFSNPVTLGTSASISCRSSKSLLHTNGITFLYWYLQKPGQSPQPLIYQMSNLASGVPDRFSSSGSGTDFTLRISRVEAEDVGVYYCAQNLELPWTFGGGTKLEINR | 90.3 | 15.7 | 50.1
17 | 20H5.A3 (antibody, mouse IgG2a, V domains shown) VH: QIQLVQSGPELKKPGESVKISCKASGYAFTTYGMSWVQQAPGKGLKWMGWVNTYSGVPTCADDFKGRFAFSLETSASTAYLQINNLRNEDTATYFCARGPYAMDYWGQGTSVTVSS VL: DIQMTQTTSSLSASLGDRVTINCSASQDISNYLNWYQQKPDGTVKLLIYYTSSLLSGVPSRFSGSGSGTDYSLTISNLEPEDIATYFCQQYSKLPYTFGSGTHLEIKR | 66.3 | 77.5 | 60.8
18 | 23H9.2E4 (antibody, mouse IgG2a, V domains shown) VH: QIQLVQSGPELKKPGETVKISCKASGYTFTTYAMSWVKQAPGKGLKWMGWINTYSGVPTYADDLKGRFAFSLETSASTAYLQINNLKNEDTATYFCARGPYAMDYWGQGTSVTVSS VL: DIQMTQTTSSLSASLGDRVTISCSASQGINNYLNWYQQKPDGTVKLLIYYASSLHSGVPSRFSGSGSGTDYSLTISNLEPEDIATYYCQQYSQVPYTFGSGTKLEIKR | 91.9 | 92.6 | 100
19 | 849.5H1 (antibody, V domains shown) VH: QVQLKESGPVLVAPSQSLSITCTVSGFSLTSYGIHWVRQPPGKGLEWLGVIWAGGSTNYNSALMSRLSISKDNSKSQVFLKMNSLQIDDTAMYYCAKPPHDYDQAWFAYWGQGTLITVSA VL: DIQMNQSPSSLSASLGDTITITCHASQNINVWLSWYQQKPGNIPKLLIYQASNLHTGVPSRFSGRGSGTGFTLTISSLQPEDIATYYCQQGQSSPFTFGSGTKLEIK | 87.5 |  | 
